The values that follow are results of earlier work, collected in article PMC7101271.

As a reminder, the Kd is the concentration at which binding is half-saturated.

Some results are limits rather than exact numbers.

The data set addresses Rab7 (UniProt P51149).
UniProt P51149, sequence (P51149 2-207): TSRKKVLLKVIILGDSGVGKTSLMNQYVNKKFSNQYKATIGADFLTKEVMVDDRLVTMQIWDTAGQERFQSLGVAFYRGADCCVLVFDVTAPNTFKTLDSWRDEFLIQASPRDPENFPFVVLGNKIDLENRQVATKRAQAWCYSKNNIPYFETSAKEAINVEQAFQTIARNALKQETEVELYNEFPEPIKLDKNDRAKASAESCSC

On to GDI (from UniProt P21856), for which the Kd is greater than 50 µM.
